Here are results for three substances from PMC6687723.

For assay [1], the target named is human Hsp40 (DNAJA2), full length (human) (UniProt O60884). The assay is described as follows: ITC; AR protein (100-200 µM) in the syringe titrated into 10-20 µM chaperone in the cell; 25 °C; 25 mM HEPES, 5 mM MgCl2, 10 mM KCl pH 7.5; one or two-site binding model; no nucleotides. For orientation: Isothermal titration calorimetry measures the heat released or taken up as one component is titrated into another.

The target in assay [2] is Hsp70 (SBD), residues 394-540 (human) (UniProt P0DMV8). The assay is described as above.
The target of assay [3] is Hsp70SBD (HSPA1A), truncated form, residues 394-509 (human) (UniProt P0DMV8). Kind of assay: fluorescence polarisation; competition: 2 µM Hsp70SBD and 25 nM FAM-LVEALY with varying concentrations of AR protein, 30 min at room temperature; 100 mM Tris, 20 mM KCl, 6 mM MgCl2 pH 7.4; no nucleotides. For orientation: Fluorescence polarisation rises when a labelled molecule tumbles more slowly, as on binding a larger partner.

Assay [4] concerns the target androgen receptor N-terminal domain construct NTD_(1-155) (human) (UniProt P10275). The assay is described as follows: NMR titration; 1H,15N-HSQC of 33 µM 15N-labelled NTD construct with 16.5 or 33 µM (0.5 or 1 molar equivalents) unlabelled Hsp70 or Hsp40; 5 °C; 20 mM phosphate pH 7.4, 1 mM TCEP, 10% D2O; no added nucleotides.

Take “androgen receptor N-terminal domain construct NTD_(1-155) (from UniProt P10275 1-155) (domain or fragment)”: the Kd in assay [1] is 3.3 µM; in assay [2], 5 µM. In addition, in assay [1], the stoichiometry N worked out at 0.49. This substance also showed an IC50 in assay [3] of 1.7 µM.

With “human Hsp40 (DNAJA2), full length (from UniProt O60884 1-412) (natural protein)”, the I/I0 of NTD (1-155) signals at 1 molar equivalent in assay [4] was found to be 0.3.

Consider “human Hsp70 (HSPA1A), full length (from UniProt P0DMV8 1-641) (natural protein)”, for which the I/I0 of NTD (1-155) signals at 1 molar equivalent in assay [4] was 0.3.

As usually defined, the Kd is the concentration at which binding is half-saturated. As a reminder, the stoichiometry N is the number of molecules, sites or subunits per partner or assembly. As usually defined, the IC50 is the concentration that inhibits the measured activity by half. A low value points to inhibition by little substance.
